Measurements: patent US20250276092A1 (Regeneron, published 2025)
Values belong to the binder of their own block, whether it stands above or below them.

Legend:
[1] = biological target: T1, human CD40 extracellular domain expressed with a C-terminal myc-myc-hexahistidine tag (human); assay: SPR 25C, captured mAb
T1 construct: also called hCD40-MMH; hCD40-mmH
Experimental: (§1) The equilibrium dissociation constants (KD) for anti-CD40 bivalent and bispecific monoclonal antibodies (mAbs) were determined using a real-time surface plasmon resonance (SPR)-based Biacore 4000 biosensor. All binding studies were performed in 10 mM HEPES, 150 mM NaCl, 3 mM EDTA, and 0.05% v/v surfactant Tween-20, pH 7.4 (HBS-ET) running buffer at 25° C. and 37° C. The Biacore CM5 sensor surface was first derivatized by amine coupling with a monoclonal mouse anti-human Fc antibody (REGN2567) to capture anti-CD40 bivalent parental and anti-CD40×CD40 bispecific antibodies. Different concentrations of CD40 reagents, human CD40 extracellular domain expressed with a C-terminal myc-myc-hexahistidine tag (“hCD40-MMH”; REGN3094; SEQ ID NO: 53), monkey CD40 extracellular domain expressed with a C-terminal myc-myc-hexahistidine tag (“mfCD40-MMH”; REGN3097; SEQ ID NO: 54), and mouse CD40 extracellular domain expressed with a C-terminal myc-myc-hexahistidine tag (“mCD40-MMH”; REGN3098; SEQ ID NO: 55), at concentrations ranging from 3.7 nM to 100 nM or 3.3 nM to 90 nM in a series of 3-fold dilutions prepared in HBS-ET running buffer were injected at a flow rate of […] for 4 minutes or […] for 5 minutes. The dissociation of different CD40 reagents bound to anti-CD40 bivalent parental and anti-CD40×CD40 bispecific antibodies was monitored for 10 minutes in HBS-ET running buffer. At the end of each cycle, the anti-CD40 bivalent parental and anti-CD40×CD40 bispecific antibodies capture surface was regenerated using a 12 sec injection of 20 mM H₃PO₄.
(§2) The association rate (ka) and dissociation rate (kd) were determined by fitting the real-time binding sensorgrams to a 1:1 binding model with mass transport limitation using Scrubber 2.0c curve-fitting software. Binding dissociation equilibrium constant (KD) and dissociative half-life (t½) were calculated from the kinetic rates as: KD (M)=kd/kₐ, and t_{1/2} (min)=[ln(2)/(60*kd)].

[2] = biological target: T1, human CD40 extracellular domain …; assay: SPR 37C, captured mAb
Experimental: as §1, §2

[3] = biological target: T2, human CD40 expressed on cells (human, UniProt P25942 21-277); assay: cell-based or functional assay
T2 sequence (P25942 21-277): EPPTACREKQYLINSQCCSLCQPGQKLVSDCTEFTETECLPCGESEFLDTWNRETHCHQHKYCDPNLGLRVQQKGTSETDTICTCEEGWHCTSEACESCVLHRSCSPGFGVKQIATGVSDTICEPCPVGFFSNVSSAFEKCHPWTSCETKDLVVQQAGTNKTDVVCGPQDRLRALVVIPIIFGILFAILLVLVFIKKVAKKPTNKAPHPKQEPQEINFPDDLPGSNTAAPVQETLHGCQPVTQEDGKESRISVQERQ

[4] = biological target: T2, human CD40 expressed on cells; assay: cell-based or functional assay; remark: listed apart in the source
[5] = biological target: T2, human CD40 expressed on cells; assay: cell-based or functional assay; remark: listed apart in the source
[6] = biological target: T2, human CD40 expressed on cells; assay: cell-based or functional assay; remark: listed apart in the source
[7] = biological target: T2, human CD40 expressed on cells; assay: cell-based or functional assay; remark: listed apart in the source
[8] = biological target: T2, human CD40 expressed on cells; assay: cell-based or functional assay; remark: listed apart in the source
[9] = biological target: T1, human CD40 extracellular domain …; assay: ELISA, blocks 40 nM hCD40-mmH binding to coated 9His-hCD40L
Experimental: In the blocking assay, 9His-hCD40L was passively absorbed at a concentration of 5 μg/mL in PBS on a 96-well microtiter plate overnight at 4° C. […] In a separate 96-well microtiter plate, a fixed amount of 40 nM hCD40-mmH was pre-mixed with one of the following antibodies, at concentrations ranging from 977 pM to 1 μM in PBS+0.5% BSA: (1) anti-CD40×CD40 bispecific antibodies (REGN16431, REGN16432, REGN16634, and REGN16335); (2) parental anti-CD40 mAbs (bivalent antibodies comprising 2 fragment antigen-binding [Fab] arms identical to one of anti-CD40 Fab of anti-CD40×CD40 antibodies); (3) anti-CD40×Irrelevant antibodies (bivalent antibodies that incorporate one Fab arm identical to one of anti-CD40 Fab of anti-CD40×CD40 antibodies and another Fab arm specific to an irrelevant antigen); and (4) human IgG4 with Fc mutation isotype control antibodies (REGN7540 and REGN4513). The fixed concentration of hCD40-mmH was selected to be near the concentration (EC₅₀ value) that generated 50% of the maximal binding to the plate-adhered 9His-hCD40L. After one-hour incubation, the antibody-antigen complexes were transferred to the microtiter plate coated with 9His-hCD40L. After one hour incubation at room temperature, the plates were washed, and plate-bound hCD40-mmH protein was detected with horseradish peroxidase (HRP) conjugated goat anti-c-Myc antibody. The plates were then developed using TMB substrate solution (BD Biosciences) according to the manufacturer's recommended procedure and the absorbance at 450 nm (OD₄₅₀) was measured on a SpectraMax i3× plate reader.
Binding data were analyzed using a sigmoidal (four-parameter logistic) dose-response model with GraphPad Prism™ software. […] The percent blocking of tested antibodies at the highest tested concentration ([…]) was calculated based on the formula shown below: […]

[10] = biological target: T3, monkey CD40 extracellular domain expressed with a C-terminal myc-myc-hexahistidine tag (monkey); assay: SPR 25C, captured mAb
T3 construct: also called mfCD40-MMH; REGN3097
T3 chain: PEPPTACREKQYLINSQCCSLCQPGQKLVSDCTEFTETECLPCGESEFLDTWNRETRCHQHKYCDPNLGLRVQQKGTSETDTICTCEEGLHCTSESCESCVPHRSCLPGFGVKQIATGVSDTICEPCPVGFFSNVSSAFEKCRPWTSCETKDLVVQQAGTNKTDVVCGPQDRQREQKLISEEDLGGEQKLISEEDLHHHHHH
Experimental: as §1, §2

[11] = biological target: T4, mouse CD40 extracellular domain expressed with a C-terminal myc-myc-hexahistidine tag (mouse); assay: SPR 25C, captured mAb
T4 construct: also called mCD40-MMH; REGN3098
T4 chain: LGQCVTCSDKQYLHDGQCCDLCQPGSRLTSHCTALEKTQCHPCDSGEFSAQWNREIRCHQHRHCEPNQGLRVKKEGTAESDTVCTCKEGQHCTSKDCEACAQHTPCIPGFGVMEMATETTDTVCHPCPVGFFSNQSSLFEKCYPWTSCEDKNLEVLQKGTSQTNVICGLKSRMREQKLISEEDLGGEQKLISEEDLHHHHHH
Experimental: as §1, §2

[12] = biological target: T4, mouse CD40 extracellular domain …; assay: SPR 37C, captured mAb
Experimental: as §1, §2

- 100 nM Ag Bound (RU) [1]: 56.6 RU
- 100 nM Ag Bound (RU) [2]: 56.6 RU
- IC50, NFkB-luc Ramos, 500 pM hCD40L [3]: 4.92e-11 M
- Max % activation, NFkB-luc Ramos, no ligand [3]: 4%
- Max % inhibition, NFkB-luc Ramos, 500 pM hCD40L [3]: 94%
- IC50, NFkB-luc Raji, 900 pM hCD40L [4]: 1.02e-10 M
- Max % activation, NFkB-luc Raji, no ligand [4]: 5%
- Max % inhibition, NFkB-luc Raji, 900 pM hCD40L [4]: 68%
- IC50, NFkB-luc THP-1, 10 nM hCD40L [5]: 0.148 nM
- Max % activation, NFkB-luc THP-1, no ligand [5]: 6%
- Max % inhibition, NFkB-luc THP-1, 10 nM hCD40L [5]: 97%
- % max blockade relative to no mAb, IL-6, B cells, donor 1 [6]: 83.5%
- % max blockade relative to no mAb, IL-6, B cells, donor 2 [6]: 92%
- % max blockade relative to no mAb, IL-6, B cells, donor 3 [6]: 92%
- % max blockade relative to no mAb, IL-10, B cells, donor 1 [7]: 81.5%
- % max blockade relative to no mAb, IL-10, B cells, donor 2 [7]: 94.5%
- % max blockade relative to no mAb, IL-10, B cells, donor 3 [7]: 90.6%
- % max blockade relative to no mAb, TNFa, B cells, donor 1 [8]: 53.5%
- % max blockade relative to no mAb, TNFa, B cells, donor 2 [8]: 68.4%
- % max blockade relative to no mAb, TNFa, B cells, donor 3 [8]: 69.1%
- % Blocking at highest mAb concentration [9]: 95%
B1: REGN16432 (bispecific antibody, human IgG4 S228P, kappa)
heavy 1: EVQLVESGGGLVQPGGSLRLSCAASGFTFSSYAMNWVRQAPGKGLEWVSIISGTIGKTYYADSVKGRFTISRDNSKNTLYLQMNSLRGEDTAVYYCAKDTERDITGSPFDYWGQGTLVTVSSASTKGPSVFPLAPCSRSTSESTAALGCLVKDYFPEPVTVSWNSGALTSGVHTFPAVLQSSGLYSLSSVVTVPSSSLGTKTYTCNVDHKPSNTKVDKRVESKYGPPCPPCPAPPVAGPSVFLFPPKPKDTLMISRTPEVTCVVVDVSQEDPEVQFNWYVDGVEVHNAKTKPREEQFNSTYRVVSVLTVLHQDWLNGKEYKCKVSNKGLPSSIEKTISKAKGQPREPQVYTLPPSQEEMTKNQVSLTCLVKGFYPSDIAVEWESNGQPENNYKTTPPVLDSDGSFFLYSRLTVDKSRWQEGNVFSCSVMHEALHNHYTQKSLSLSLGK
heavy 2: EVQLVESGGGLVQPGGSLRLSCAASGFTFGSYGMAWVRQAPGKGLEWVSAISGSGDYTNYADSVKRRFTISRDNSKNTLYLQMSSLRAEDTAVYYCAKEKTGTTGYLYSGMDVWGQGTTVTVSSASTKGPSVFPLAPCSRSTSESTAALGCLVKDYFPEPVTVSWNSGALTSGVHTFPAVLQSSGLYSLSSVVTVPSSSLGTKTYTCNVDHKPSNTKVDKRVESKYGPPCPPCPAPPVAGPSVFLFPPKPKDTLMISRTPEVTCVVVDVSQEDPEVQFNWYVDGVEVHNAKTKPREEQFNSTYRVVSVLTVLHQDWLNGKEYKCKVSNKGLPSSIEKTISKAKGQPREPQVYTLPPSQEEMTKNQVSLTCLVKGFYPSDIAVEWESNGQPENNYKTTPPVLDSDGSFFLYSRLTVDKSRWQEGNVFSCSVMHEALHNRFTQKSLSLSPGK
light: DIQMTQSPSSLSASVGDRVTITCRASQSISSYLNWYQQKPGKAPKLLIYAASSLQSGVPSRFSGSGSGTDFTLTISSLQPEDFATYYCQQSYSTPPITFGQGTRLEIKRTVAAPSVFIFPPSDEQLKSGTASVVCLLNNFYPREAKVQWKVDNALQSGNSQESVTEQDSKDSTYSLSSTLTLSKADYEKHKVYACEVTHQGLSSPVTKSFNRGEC

- 100 nM Ag Bound (RU) [10]: 10.1 RU
- 100 nM Ag Bound (RU) [11]: -0.5 RU
- 100 nM Ag Bound (RU) [1]: 76.6 RU
- 100 nM Ag Bound (RU) [12]: 0.2 RU
- 100 nM Ag Bound (RU) [2]: 67.2 RU
- EC50, NFkB-luc Ramos, no ligand [3]: > 10 nM
- IC50 (three highest concentrations excluded, hook effect), NFkB-luc Ramos, 500 pM hCD40L [3]: 8.06e-11 M
- Max % activation, NFkB-luc Ramos, no ligand [3]: 49%
- Max % inhibition, NFkB-luc Ramos, 500 pM hCD40L [3]: 63%
- EC50, NFkB-luc Raji, no ligand [4]: > 100 nM
- IC50, NFkB-luc Raji, 900 pM hCD40L [4]: 7.7e-11 M
- Max % activation, NFkB-luc Raji, no ligand [4]: 25%
- Max % inhibition, NFkB-luc Raji, 900 pM hCD40L [4]: 81%
- IC50, NFkB-luc THP-1, 10 nM hCD40L [5]: 0.437 nM
- Max % activation, NFkB-luc THP-1, no ligand [5]: 1%
- Max % inhibition, NFkB-luc THP-1, 10 nM hCD40L [5]: 97%
- % Blocking at highest mAb concentration [9]: 94%
B2: 21520P2 (antibody, human IgG4 S228P, kappa, V domains shown)
VH: EVQLVESGGGLVQPGGSLRLSCAASGFTFGSYGMAWVRQAPGKGLEWVSAISGSGDYTNYADSVKRRFTISRDNSKNTLYLQMSSLRAEDTAVYYCAKEKTGTTGYLYSGMDVWGQGTTVTVSS
VL: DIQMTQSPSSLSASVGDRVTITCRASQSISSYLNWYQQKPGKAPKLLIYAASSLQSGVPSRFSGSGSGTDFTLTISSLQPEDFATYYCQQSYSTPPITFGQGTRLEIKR
notes: Parental bivalent anti-CD40 mAb; also called H4sH21520P2
